{"source": "patent US20240174727A1", "about": "“LONG-ACTING NATRIURETIC PEPTIDES AND USES THEREOF” (Eli Lilly and Company, priority 2022, published 2024)", "binders": {"B1": {"name": "Example 11 (peptide)", "peptide": "XEKEKEKGSXRRSSCFGGRIDRIGAQSGLGCNSFRY", "modifications": "HOOC-(CH2)18-CO-(γGlu)-EKEKEKGS-4Pal-RRSS[CFGGRIDRIGAQSGLGC]NSFRY-NH2; disulfide linkage between the bracketed Cys"}, "B2": {"name": "Example 9 (peptide)", "peptide": "{C20 diacid}-[γGlu]EKEKEKGSLRRSSCFGGRIDRIGAQSGLGCNSFR[4Pal]-NH2", "modifications": "disulfide 15-31", "SMILES": "CC[C@H](C)[C@@H]1NC(=O)[C@H](CCCNC(=N)N)NC(=O)[C@H](CC(=O)O)NC(=O)[C@H]([C@@H](C)CC)NC(=O)[C@H](CCCNC(=N)N)NC(=O)CNC(=O)CNC(=O)[C@H](Cc2ccccc2)NC(=O)[C@@H](NC(=O)[C@H](CO)NC(=O)[C@H](CO)NC(=O)[C@H](CCCNC(=N)N)NC(=O)[C@H](CCCNC(=N)N)NC(=O)[C@H](CC(C)C)NC(=O)[C@H](CO)NC(=O)CNC(=O)[C@H](CCCCN)NC(=O)[C@H](CCC(=O)O)NC(=O)[C@H](CCCCN)NC(=O)[C@H](CCC(=O)O)NC(=O)[C@H](CCCCN)NC(=O)[C@H](CCC(=O)O)NC(=O)CC[C@H](NC(=O)CCCCCCCCCCCCCCCCCCC(=O)O)C(=O)O)CSSC[C@@H](C(=O)N[C@@H](CC(N)=O)C(=O)N[C@@H](CO)C(=O)N[C@@H](Cc2ccccc2)C(=O)N[C@@H](CCCNC(=N)N)C(=O)N[C@@H](Cc2ccncc2)C(N)=O)NC(=O)CNC(=O)[C@H](CC(C)C)NC(=O)CNC(=O)[C@H](CO)NC(=O)[C@H](CCC(N)=O)NC(=O)[C@H](C)NC(=O)CNC1=O"}, "B3": {"name": "Example 10 (peptide)", "peptide": "{C20 diacid}-[γGlu]EKEKEKGSLRRSSCFGGRIDRIGA[4Pal]SGLGCNSFRY-NH2", "modifications": "disulfide 15-31", "SMILES": "CC[C@H](C)[C@@H]1NC(=O)[C@H](CCCNC(=N)N)NC(=O)[C@H](CC(=O)O)NC(=O)[C@H]([C@@H](C)CC)NC(=O)[C@H](CCCNC(=N)N)NC(=O)CNC(=O)CNC(=O)[C@H](Cc2ccccc2)NC(=O)[C@@H](NC(=O)[C@H](CO)NC(=O)[C@H](CO)NC(=O)[C@H](CCCNC(=N)N)NC(=O)[C@H](CCCNC(=N)N)NC(=O)[C@H](CC(C)C)NC(=O)[C@H](CO)NC(=O)CNC(=O)[C@H](CCCCN)NC(=O)[C@H](CCC(=O)O)NC(=O)[C@H](CCCCN)NC(=O)[C@H](CCC(=O)O)NC(=O)[C@H](CCCCN)NC(=O)[C@H](CCC(=O)O)NC(=O)CC[C@H](NC(=O)CCCCCCCCCCCCCCCCCCC(=O)O)C(=O)O)CSSC[C@@H](C(=O)N[C@@H](CC(N)=O)C(=O)N[C@@H](CO)C(=O)N[C@@H](Cc2ccccc2)C(=O)N[C@@H](CCCNC(=N)N)C(=O)N[C@@H](Cc2ccc(O)cc2)C(N)=O)NC(=O)CNC(=O)[C@H](CC(C)C)NC(=O)CNC(=O)[C@H](CO)NC(=O)[C@H](Cc2ccncc2)NC(=O)[C@H](C)NC(=O)CNC1=O"}}, "note": "Numbered stars: 1 amine (or outer) side, 2 acyl side, 3 side chain; on linkers, the order of the positions; unused ones are H or OH. Bridge positions count the residues as written; N and C are the ends. Square brackets hold non-standard residues; d marks the D form. * marks the point of attachment. C20 diacid = O=C(O)CCCCCCCCCCCCCCCCCCC(=O)*; γGlu = O=C(O)[C@H](CCC(=O)[*:2])N[*:1]; 4Pal = N[C@@H](Cc1ccncc1)C(=O)O", "data": [{"molecular_target": "T1, rat NPRA (rat, UniProt P18910 29-1057)", "T1 sequence (looked up)": "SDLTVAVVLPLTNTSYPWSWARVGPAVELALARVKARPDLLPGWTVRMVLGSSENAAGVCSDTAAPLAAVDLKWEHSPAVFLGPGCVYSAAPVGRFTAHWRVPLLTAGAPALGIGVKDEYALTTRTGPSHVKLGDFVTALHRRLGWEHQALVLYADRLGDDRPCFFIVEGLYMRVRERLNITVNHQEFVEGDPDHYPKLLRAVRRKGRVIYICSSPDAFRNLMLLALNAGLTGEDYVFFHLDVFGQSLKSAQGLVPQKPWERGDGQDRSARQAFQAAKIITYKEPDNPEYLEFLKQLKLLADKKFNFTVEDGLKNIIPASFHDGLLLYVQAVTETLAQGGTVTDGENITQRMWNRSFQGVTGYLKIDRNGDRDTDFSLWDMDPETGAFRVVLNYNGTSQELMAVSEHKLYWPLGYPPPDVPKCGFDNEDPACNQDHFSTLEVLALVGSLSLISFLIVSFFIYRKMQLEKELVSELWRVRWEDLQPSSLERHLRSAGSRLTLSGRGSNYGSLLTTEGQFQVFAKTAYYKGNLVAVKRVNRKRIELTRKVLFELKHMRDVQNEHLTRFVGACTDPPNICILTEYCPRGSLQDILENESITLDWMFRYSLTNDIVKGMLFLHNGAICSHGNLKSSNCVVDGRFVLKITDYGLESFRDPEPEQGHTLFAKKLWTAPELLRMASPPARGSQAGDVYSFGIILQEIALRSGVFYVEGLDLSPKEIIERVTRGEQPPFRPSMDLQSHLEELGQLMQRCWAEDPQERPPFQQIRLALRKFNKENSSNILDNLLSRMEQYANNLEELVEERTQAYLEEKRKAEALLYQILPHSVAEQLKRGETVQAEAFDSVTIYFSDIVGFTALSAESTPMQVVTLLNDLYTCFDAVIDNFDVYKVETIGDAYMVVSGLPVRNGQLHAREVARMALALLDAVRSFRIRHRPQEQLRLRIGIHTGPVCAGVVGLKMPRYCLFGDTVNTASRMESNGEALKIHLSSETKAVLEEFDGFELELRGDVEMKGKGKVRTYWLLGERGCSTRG", "test": "cell-based or functional assay", "units": {"cGMP Assay (EC50, pM) w/BSA": "pM", "cGMP Assay (EC50, pM) w/Casein": "pM"}, "values": [{"binder": "B1", "cGMP Assay (EC50, pM) w/BSA": 24700, "cGMP Assay (EC50, pM) w/Casein": 242}, {"binder": "B2", "cGMP Assay (EC50, pM) w/BSA": 46700, "cGMP Assay (EC50, pM) w/Casein": 509}, {"binder": "B3", "cGMP Assay (EC50, pM) w/BSA": 88400, "cGMP Assay (EC50, pM) w/Casein": 501}]}, {"molecular_target": "T2, human NPRA (human, UniProt P16066 33-1061)", "T2 sequence (looked up)": "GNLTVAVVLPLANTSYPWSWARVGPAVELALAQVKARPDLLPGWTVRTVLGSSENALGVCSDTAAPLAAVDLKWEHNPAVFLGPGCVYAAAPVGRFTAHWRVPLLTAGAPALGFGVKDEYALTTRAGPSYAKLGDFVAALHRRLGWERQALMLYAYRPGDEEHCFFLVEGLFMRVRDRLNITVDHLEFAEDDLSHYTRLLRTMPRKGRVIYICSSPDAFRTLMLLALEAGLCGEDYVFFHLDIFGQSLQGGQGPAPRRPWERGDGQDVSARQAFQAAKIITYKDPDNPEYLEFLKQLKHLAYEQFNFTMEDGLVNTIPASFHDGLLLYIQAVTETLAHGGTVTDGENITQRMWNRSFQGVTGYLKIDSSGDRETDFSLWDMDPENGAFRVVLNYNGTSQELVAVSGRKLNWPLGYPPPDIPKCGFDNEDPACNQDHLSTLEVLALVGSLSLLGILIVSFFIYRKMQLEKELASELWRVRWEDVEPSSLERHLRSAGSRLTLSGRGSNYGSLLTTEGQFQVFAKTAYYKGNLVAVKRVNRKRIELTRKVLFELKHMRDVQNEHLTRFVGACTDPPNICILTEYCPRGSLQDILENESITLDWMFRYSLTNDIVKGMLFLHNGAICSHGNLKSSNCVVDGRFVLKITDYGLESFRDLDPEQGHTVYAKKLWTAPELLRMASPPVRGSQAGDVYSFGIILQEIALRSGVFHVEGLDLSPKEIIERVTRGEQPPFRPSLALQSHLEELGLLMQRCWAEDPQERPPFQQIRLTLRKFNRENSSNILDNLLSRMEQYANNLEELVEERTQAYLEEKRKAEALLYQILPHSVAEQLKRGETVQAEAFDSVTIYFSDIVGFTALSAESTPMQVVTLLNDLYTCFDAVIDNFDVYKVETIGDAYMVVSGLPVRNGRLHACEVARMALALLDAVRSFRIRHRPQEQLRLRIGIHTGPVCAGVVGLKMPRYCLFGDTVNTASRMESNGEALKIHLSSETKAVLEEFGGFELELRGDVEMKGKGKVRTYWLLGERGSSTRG", "test": "cell-based or functional assay", "units": {"cGMP Assay (EC50, pM) w/BSA": "pM", "cGMP Assay (EC50, pM) w/Casein": "pM"}, "values": [{"binder": "B1", "cGMP Assay (EC50, pM) w/BSA": 24400, "cGMP Assay (EC50, pM) w/Casein": 1020}, {"binder": "B2", "cGMP Assay (EC50, pM) w/BSA": 100000, "cGMP Assay (EC50, pM) w/Casein": 1870}, {"binder": "B3", "cGMP Assay (EC50, pM) w/BSA": 64200, "cGMP Assay (EC50, pM) w/Casein": 1310}]}]}
